Experimental data as given in PMC10088672 (2023).

Tests used:
[1] = target: T1, SARS-CoV-2 spike RBD, Wuhan-Hu-1 (SARS-CoV-2, UniProt P0DTC2 321-536); test: BLI
[2] = target: T1, SARS-CoV-2 spike RBD, Wuhan-Hu-1; test: BLI; remark: listed apart in the source

Binder	koff [1]	Kd [2]
NCV2SG48 monoclonal antibody (human IgG) (antibody, V domains shown) VH: EVQLVESGGGLIQPGGSLRLSCAASGFIVSRNYMNWVRQAPGKGLEWVALIYSGGSTFYADSVKGRFTISRDNSKNTLYLQMNSLRAEDTAVYYCARDLVVYGLDYWGQGTLVTVSS VL: AIQLTQSPSSLSASVGDRVTITCRASQGISSHLAWYQQKPGKAPKLLIFAASTLQSGVPSRFSGSGSGTDFTLTISSLQPEDFATYYCQHLNSNPPITFGQGTRLEIK	0.00015 s⁻¹	2.5 nM
NCV2SG53 monoclonal antibody (human IgG) (antibody, V domains shown) VH: QVQMVESGGGLVRPGGSLRLSCAASGFTFSDYYMSWIRQAPGKGLEWISYISSSGSSMNYADSVKGRFTISRDNAKNSLFLQMNSLRAEDTAVYYCAREFDLTKIIMVPPYWGQGTLVTVSS VL: AIQLTQSPSSLSASVGDRVTITCRASQGISSYLAWYQQKPGKAPKVLIYAASTLQSGVPSRFSGSGSGTDFTLTISSLQPEDFATYYCQQLKSYPLTFGGGTKVEIT	0.00022 s⁻¹	2.6 nM
